In patent publication US20080070264A1, “Intracellular Signaling-Induced Ret-Independent Gdnf Receptor-Effected Morphological Changes” (JPMORGAN CHASE BANK N.A., priority 2003, published 2008):

How the values were obtained:
MET [1] = test: MET activation in GFRα1-transfected COS7 cells; format: cell-based
MET [2] = test: MET phosphorylation in SHEP neuroblastoma cells; format: cell-based, human; conditions: GDNF 0.1 pg/ml; SHEP cells express GFRα1 but not RET; data not shown
Method: FIG. 7B: SHEP cells were grown with GDNF (10 ng/ml (lanes 2-4) or 5 pg/ml (lanes 5-7)) or HGF (10 ng/ml (lanes 8-9)) in the presence of PP2 (1 μM (lanes 3 and 6) and 10 μM (lanes 4 and 7)). To exclude a possible cytotoxic effect of the solvent, DMSO was added to the controls. […] The numbers below the lane indicate the fold of induction of MET tyrosine kinase. The results are representative of three independent experiments.
(§1) To detect MET activation, GFRα1- and RET/GFRα1-expressing MDCK or SHEP cells were starved overnight in MEM or RPMI 1640 with 1% FCS, respectively, and in serum-free medium for 2 h prior the induction. After 15 min incubation at 37° C. with GDNF (at indicated concentrations) or with 50 ng/ml HGF, cells were lysed as described. Cleared cell lysates were incubated with anti-MET antibodies (Santa Cruz Biotechnologies, Inc.) overnight at 4° C. Immunoprecipitates were collected with protein A-SEPHAROSE (Amersham Pharmacia Biotech), washed, separated by SDS-PAGE and transferred to HYBOND-ECL membranes. Membranes were immunoblotted with anti-phospho-tyrosine antibodies (Upstate Group Inc.) or anti-MET antibodies.
(§2) For all experiments, densitometry and quantifications were performed using TINA 2.0 program (Raytest, Straubenhardt, Germany).
(§3) For the inhibition of MET, and Src activation, SHEP or GFRα1- and RET/GFRα1-expressing MDCK cells were starved as described above. 1 or […] of the inhibitor PP2 (Calbiochem) was added 30 min before induction by GDNF or HGF. DMSO (dimethyl sulfoxide) was added to the positive controls together with GDNF or HGF.

wild-type MDCK cells = test: Branching tubule formation assay in 3-D collagen gel; format: cell-based, dog
Method: (§4) From the total amount of cysts in the field, the percentage of cysts with long branches was calculated. Only branches with lengths of more than two cyst diameters were counted.
(§5) Trypsinized cells were mixed 1:3 with collagen type I solution and plated. MEM with 10% FCS was overlaid on the gels with or without GDNF (Cephalon Inc. or R&D Systems, Inc.) or 50 ng/ml HGF. Cells in collagen were cultured for 3 days; GDNF-containing medium was changed daily. For quantification, cells were cultured for 3 days, fixed by 3% glutaraldehyde in PBS and counted under a light microscope.
(§6) To avoid the effect of possible contamination of GDNF preparation, recombinant GDNF from two different sources were tested. One tested GDNF was expressed in baculovirus-infected insect cells (Cephalon Inc.), the other was expressed in mouse myeloma cell line NSO (R&D Systems, Inc.).

MET [3] = test: MET phosphorylation in MDCK cells (immunoprecipitation, Western blotting); format: cell-based, dog
Method: as §1
Alternatively, 30 μg of protein was incubated overnight at 4° C. with 10 μl Immobilized Phospho-Tyrosine Monoclonal Antibodies (Cell Signalling, NEB). Immunocomplexes were washed and analysed as described.
as §2, §3

[4] = system: RET/GFRα1-expressing MDCK cells; test: Branching tubule formation assay in 3-D collagen gel; format: cell-based, dog
Method: as §4
(§7) FIG. 2C: Dose-dependence of GDNF-induced branching of GFRα1- and RET/GFRα1-expressing MDCK cells. GDNF concentrations are per ml (x-axis). Results are reported as fold of branching cysts count over the non-induced control. Means±standard errors of the mean of five to eight counted fields are shown. The results are representative of five (A and B) and three (C) independent experiments, p<0.001.
as §5, §6

[5] = system: GFRα1-expressing MDCK cells; test: as above; format: cell-based, dog
Method: as §4, §7, §5, §6

RET = biological target: T1, RET (UniProt P07949+Q62997); test: RET phosphorylation in RET/GFRα1-expressing MDCK cells; format: cell-based, dog
T1 construct: expressed in transfected cells
T1 sequence (P07949 29-1114): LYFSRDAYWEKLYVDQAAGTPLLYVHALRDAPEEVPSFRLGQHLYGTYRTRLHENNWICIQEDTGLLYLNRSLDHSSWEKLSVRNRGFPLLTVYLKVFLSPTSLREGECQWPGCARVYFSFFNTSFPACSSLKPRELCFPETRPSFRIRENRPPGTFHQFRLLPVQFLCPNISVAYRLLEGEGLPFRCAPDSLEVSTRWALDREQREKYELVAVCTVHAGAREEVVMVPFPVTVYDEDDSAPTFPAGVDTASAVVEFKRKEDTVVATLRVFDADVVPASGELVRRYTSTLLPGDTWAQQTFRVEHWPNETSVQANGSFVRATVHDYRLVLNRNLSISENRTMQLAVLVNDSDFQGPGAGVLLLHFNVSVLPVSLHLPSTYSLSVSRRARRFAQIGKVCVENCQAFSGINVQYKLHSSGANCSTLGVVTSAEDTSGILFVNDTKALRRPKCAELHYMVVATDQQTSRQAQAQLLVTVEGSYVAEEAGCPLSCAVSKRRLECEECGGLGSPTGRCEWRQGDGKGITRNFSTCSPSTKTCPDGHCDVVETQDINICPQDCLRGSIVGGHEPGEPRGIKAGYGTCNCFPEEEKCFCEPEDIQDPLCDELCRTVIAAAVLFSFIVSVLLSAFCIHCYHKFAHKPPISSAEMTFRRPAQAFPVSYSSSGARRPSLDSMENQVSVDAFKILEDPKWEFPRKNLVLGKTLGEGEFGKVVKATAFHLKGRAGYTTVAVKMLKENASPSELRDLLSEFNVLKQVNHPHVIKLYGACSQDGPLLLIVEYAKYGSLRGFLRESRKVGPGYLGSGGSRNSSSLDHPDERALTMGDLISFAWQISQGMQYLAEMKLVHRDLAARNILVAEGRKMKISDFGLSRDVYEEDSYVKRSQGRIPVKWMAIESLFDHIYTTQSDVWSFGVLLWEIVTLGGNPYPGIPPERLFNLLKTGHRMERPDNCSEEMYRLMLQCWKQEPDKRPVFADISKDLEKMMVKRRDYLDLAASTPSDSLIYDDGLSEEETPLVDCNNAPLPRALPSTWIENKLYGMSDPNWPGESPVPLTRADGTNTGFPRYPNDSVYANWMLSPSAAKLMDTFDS
T1 sequence (Q62997 25-430 limits assumed): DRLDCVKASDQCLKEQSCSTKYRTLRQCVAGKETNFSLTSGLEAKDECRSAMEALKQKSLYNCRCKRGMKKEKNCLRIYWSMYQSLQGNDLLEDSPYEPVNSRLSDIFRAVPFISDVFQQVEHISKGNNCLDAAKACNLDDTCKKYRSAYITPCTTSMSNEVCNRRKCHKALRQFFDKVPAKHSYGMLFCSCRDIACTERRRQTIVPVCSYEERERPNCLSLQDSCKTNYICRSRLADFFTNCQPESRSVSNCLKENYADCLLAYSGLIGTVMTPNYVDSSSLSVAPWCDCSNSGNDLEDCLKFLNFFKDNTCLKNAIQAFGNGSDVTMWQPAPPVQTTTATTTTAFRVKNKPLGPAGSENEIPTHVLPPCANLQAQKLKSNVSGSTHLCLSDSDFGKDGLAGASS
Method: FIG. 4D: Dose-dependent activation of RET by GDNF in RET/GFRα1-expressing MDCK cells. […]. […] The numbers below the lanes indicate the fold of induction of RET tyrosine kinase. IP, immunoprecipitation; WB, Western blotting; P-tyr, phospho-tyrosine. The results are representative of three independent experiments.
as §1
The above procedure was also followed to detect RET phosphorylation in RET/GFRα1-expressing MDCK, however, for these experiments, anti-RET antibodies (Santa Cruz Biotechnologies, Inc.) were used for the immunoprecipitation and immunoblotting.

[6] = ligand 100 ng/ml, 3-D collagen gel

B1: GDNF: recombinant glial cell line-derived neurotrophic factor from Cephalon Inc. (baculovirus-infected insect cells) or R&D Systems, Inc. (mouse myeloma NSO) (protein, UniProt P39905 78-211, looked up)
Glial cell line-derived …: SPDKQMAVLPRRERNRQAAAANPENSRGKGRRGQRGKNRGCVLTAIHLNVTDLGLGYETKEELIFRYCSGSCDAAETTYDKILKNLSRNRRLVSDKVGQACCRPIAFDDDLSFLDDNLVYHILRKHSAKRCGCI
B1 was tested, and the MET activation (MET [1]) was “takes place”, the MET phosphorylation (MET [2]) was “induced rapid MET phosphorylation” and the branching tubule formation (wild-type MDCK cells; [6]) was “did not”. For the same molecule, the branching tubule formation (wild-type MDCK cells; mock-transfected MDCK cells used as controls) was “did not from branching tubules”, the MET phosphorylation (MET [3]; GFRα1- and Ret/GFRα1-expressing MDCK cells) was “evoked MET phosphorylation” and the “GDNF concentration at which MET activation reached saturation” value (MET [3]; GFRα1- and Ret/GFRα1-expressing MDCK cells, 15 min) was 0.1 pg/mL. For the same molecule, the “time to MET activation” value (MET [3]; GFRα1-expressing and RET/GFRα1-expressing MDCK cells) was no more than 15 min, the “duration of MET activation” value (MET [3]; GFRα1-expressing and RET/GFRα1-expressing MDCK cells, data not shown) was “at least 2 hours” and the “concentration at which MET is saturated” value (MET [3]; GFRα1-expressing and RET/GFRα1-expressing MDCK cells, printed as 4 fM (0.1 pg/ml)) was 4 fM. The MET phosphorylation (MET [3]; wild type MDCK cells) was “but not in wild type MDCK cells”, the “GDNF concentration at which cells started to branch” value ([4]; cells co-expressing RET and GFRα1, dose-response FIG. 2C) was 0.1 ng/mL and the branching tubule formation [4, 6] was “formed branching tubules”. For the same molecule, the “GDNF concentration that evoked tubulogenesis” value ([5]; cells expressing GFRα1 but not RET, dose-response FIG. 2C) was 0.1 pg/ml, the branching tubule formation [5, 6] was “formed branching tubules” and the branching tubulogenesis ([5]; wild-type MDCK transduced with an adenovirus expressing GFRα1, data not shown) was “induced branching tubulogenesis”. For the same molecule, the “GDNF concentration at which RET phosphorylation reached saturation” value (RET) was 10 ng/mL, the “GDNF concentration at which RET phosphorylation was observed” value (RET) was 0.1 pg/mL and the “time to RET activation” value (RET; data not shown) was no less than 2 h.
